# Measured values as given in article PMC6605747.
# B1: Flag-tagged mouse CXCR4 C-terminally fused via a TEV protease cleavage site to tTA [mouse] / Myc-tagged COMMD8 C-terminally fused to TEV protease [not stated (mouse cDNA cloned for the MSCV2.2 vectors)] (parent)
# chain 1: MEPEEGTPLWRLQKLPPEQGAGLLHKIIDGFCGRAYPAHQDYHSVWNSAEWKHVLEDVTTFFKAVVGKNFSEEETLQQLNQLNSCHQEAVLKCLKSRRNEIKQALLGEIVDISCAQLQDFDWQLKLALSSDKIATLQMPLLNLHLDVKEDDKVKPYTVEMSKEELQSLISSLEAANKVVLQLK
# chain 2: MEPISVSIYTSDNYSEEVGSGDYDSNKEPCFRDENVHFNRIFLPTIYFIIFLTGIVGNGLVILVMGYQKKLRSMTDKYRLHLSVADLLFVITLPFWAVDAMADWYFGKFLCKAVHIIYTVNLYSSVLILAFISLDRYLAIVHATNSQRPRKLLAEKAVYVGVWIPALLLTIPDFIFADVSQGDISQGDDRYICDRLYPDSLWMVVFQFQHIMVGLILPGIVILSCYCIIISKLSHSKGHQKRKALKTTVILILAFFACWLPYYVGISIDSFILLGVIKQGCDFESIVHKWISITEALAFFHCCLNPILYAFLGAKFKSSAQHALNSMSRGSSLKILSKGKRGGHSSVSTESESSSFHSS
# Variants of: B1
# Assay: Tango assay
# Conditions: with Myc-tagged COMMD8 C-terminally fused to TEV protease [not stated (mouse cDNA cloned for the MSCV2.2 vectors)]; HTL cells; firefly luciferase normalized to Renilla luciferase, fold increase over unstimulated cells; read off a plot
row,Variant,response (fold increase)
1,chain 2 S353A S354A S355A,0.87
